# Measured values: patent US20190248902A1 (published 2019)
# T1: recombinant, soluble human ASGR-1 (human, UniProt P07306 62-291)
# T1 construct: biotinylated in the binning assay; also called soluble huASGR-1; Soluble ASGR-1 (Amgen)
# T1 sequence: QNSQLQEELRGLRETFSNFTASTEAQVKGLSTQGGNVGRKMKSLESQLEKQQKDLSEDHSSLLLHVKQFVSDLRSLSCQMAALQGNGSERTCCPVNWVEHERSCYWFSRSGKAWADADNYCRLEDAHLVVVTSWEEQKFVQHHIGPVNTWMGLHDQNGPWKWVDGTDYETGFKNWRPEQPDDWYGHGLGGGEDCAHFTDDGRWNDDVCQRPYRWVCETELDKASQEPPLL
# Experiments:
# [1] = target: T1, recombinant, soluble human ASGR-1; test: Octet BLI dissociation, pH 5.6 plus calcium
# Method in brief: (§1)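 Antibodies were captured on anti-human Fc biosensors, and soluble ASGR-1 (6 ug/ml) was associated for 2 min in Tris buffer containing 1 mM CaCl2 at pH 7.4, followed by 10 min dissociation under each test condition. The signal at the end of association was set as 100%. Percent ASGR-1 still bound after 1 min of dissociation was compared with the pH 7.4 plus calcium control, and >10% extra dissociation was scored as sensitive.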
# [2] = target: T1, recombinant, soluble human ASGR-1; test: Octet BLI dissociation, pH 5.6 minus calcium
# Method in brief: as §1
# [3] = target: T1, recombinant, soluble human ASGR-1; test: Octet BLI dissociation, pH 7.4 minus calcium
# Method in brief: as §1
Binder,% Change Compared to pH 7.4 + Calcium [1] [%],% Change Compared to pH 7.4 + Calcium [2] [%],% Change Compared to pH 7.4 + Calcium [3] [%]
"190F8 (antibody, V domains shown, hybridoma mAb) VH: QVQLVESGGGVVQPGRSLRLSCAASGFTFSTYGMHWVRQAPGKGLEWVAVIWYDGSNKNYADSVKGRFTISRDNSKNTLYLQMNSLRAEDTAVYYCARDQGVGYDGLDVWGQGTTVTVSS VL: DIQMTQSPSSLSASVGDRVTITCRTSQGIGNYLAWFQQKPGKAPKSLLYKASSLQSGVPSKFSGSGSGTDFTLTISSLQPEDFATYYCQQYMTYPLTFGGGTKVEIK",-5,-5,-1
"190G11 (antibody, V domains shown, hybridoma mAb) VH: QVQLVESGGGVVQPGRSLRLSCAASGFTFSIYGMHWVRQAPGKGLEWVAVIWYDGSNKNYADSVKGRFTISRDNSKNTLYLQMNSLRAEDTAVYYCARDQGVGYDGLDVWGQGTTVTVSS VL: DIQMTQSPSSLSASVGDRVTITCRTSQGIGNYLAWFQQKPGKAPKSLLYKASSLQSGVPSKFSGSGSGTDFTLTISSLQPEDFATYYCQQYMTYPLTFGGGTKVEIK",-8,-5,-2
"191A10 (antibody, V domains shown, hybridoma mAb) VH: QVQLVESGGGVVQPGRSLRLSCAASGFTFSSYGMHWVRQAPGKGLEWVAVIWYDGSNKNYADSVKGRFTISRDNSKNTLYLQMNSLRAEDTAMYYCARDQGVGYDGLDVWGQGTSVTVSS VL: DIQMTQSPSSLSASVGDRVTITCRASQGIGKYLAWFQQKPGKAPKSLIYAASSLQSGVPSKFSGSGYGTDFTLTISSLQPENFAIYYCQQYSTYPLTFGGGTKVEIK",-5,-5,0
"191E10 (antibody, V domains shown, hybridoma mAb) VH: QVQLVESGGGVVQPGRSLRLSCAASGFTFSSYGMHWVRQAPGKGLEWVAVIWYDGSNKNYADSVKGRFTISRDNSKNTLYLQMNSLRAEDTAMYYCARDQGVGYDGLDVWGQGTSVTVSS VL: DIQMTQSPSSLSASVGDRVTITCRASQGIGKYLAWFQQKPGKAPKSLIYAASSLQSGVPSKFSGSGSGTDFTLTISSLQPENFATYYCQQYSTYPLTFGGGTKVEIK",-9,-9,-1
"191G1 (antibody, V domains shown, hybridoma mAb) VH: QVQLVESGGGVVQPGRSLRLSCAASGFTFSSYGMHWVRQAPGKGLEWVAVIWYDGSNEHYADSVKGRFTISRDNSKNTLYLQMNSLRAEDTAVYYCARDRGVGYYGLDVWGQGTTVTVSS VL: DIQMTQSPSSLSASVGDRVTITCRASQGISNYLAWFQQKPGKAPKSLIYAASSLQSGVPSKFSGSGSGTDFTLTISSLQPEDFATYYCQHYLTYPLTFGGGTKVEIK",-15,-11,-10
"191G10 (antibody, V domains shown, hybridoma mAb) VH: QVQLVESGGGVVQPGRSLRLSCAASGFTFSSYGMHWVRQAPGKGLEWVAVIWYDGSNKNYADSVKGRFTISRDNSKNTLYLQMNSLRAEDTAVYYCARDQGVGYDGLDVWGQGTTVTVSS VL: DIQMTQSPSSLSASVGDRVTITCRTSQGIGKYLAWFQQKPGKAPKSLLYKVSSLQSGVPSKFSGSGSGTDFTLTISSLQPEDFATYYCQQYMTYPLTFGGGTKVEIK",-5,-5,0
"191G12 (antibody, V domains shown, hybridoma mAb) VH: QVQLVESGGGVVQPGRSLRLSCAASGFTFSSYGMHWVRQAPGKGLEWVAVIWYDGSNKNYADSVKGRFTISRDNSKNTLYLQMNSLRAEDTAVYYCARDQGVGYDGLDVWGQGTTVTVSS VL: DIQMTQSPSSLSASVGDRVTITCRTSQGIGNYLAWFQQKPGKAPKSLLYKASSLQSGVPSKFSGSGSGTDFTLTISSLQPEDFATYYCQQYITYPLTFGGGSKVEIK",-5,-6,-2
"192C8 (antibody, V domains shown, hybridoma mAb) VH: QVQLVESGGGVVQPGRSLRLSCAASGFTFSSYGMHWVRQAPGKGLEWVAVIWYDGSNEHYADSVKGRFMISRDNSKNTLYLQMNSLRAEDTAVYYCARDRGVGYYGMDVWGQGTTVTVSS VL: DIQMTQSPSSLSASVGDRVTITCRASQGISNYLAWFQQKPGKAPKSLIYAASSLQSGVPSKFSGSGSGTDFTLTISSLQPEDFATYYCQHYLTYPLTFGGGTKVEIK",-14,-14,-9
"192G6 (antibody, V domains shown, hybridoma mAb) VH: QVQLVESGGGVVQPGRSLRLSCAASGFTFSSYGMHWVRQAPGKGLEWVAVLWYDGTNKNYADSVKGRFTISRDNSKNTLYLQMNSLRAEDTAVYYCARDQGVGYDGLDVWGQGTTVTVSS VL: DIKMTQSPSSLSASVGDRVTITCRTSQGIGNYLAWFQQKPGKAPKSLLYKASSLQSGVPSKFSGSGSGTDFTLTISSLQPEDFATYYCQQYMTYPLTFGGGTKVEIK",-6,-6,-1
"192G8 (antibody, V domains shown, hybridoma mAb) VH: QVQLVESGGGVVQPGRSLRLSCAASGFTFSSYGMHWVRQAPGKGLEWVAVIWYDGSNKNYADSVKGRFTISRDNSKNTLYLQMNSLRAEDTAVYYCARDQGVGYDGLDVWGQGTTVTVSS VL: DIQMTQSPSSLSASVGDRVTITCRTSQGIGNYLAWFQQKPGKAPKSLLYKASSLQSGVPSKFSGSGSGTDFTLTISSLQPEDFATYYCQQYITYPLTFGGGTKVEIK",-5,-6,-1
"192H10 (antibody, V domains shown, hybridoma mAb) VH: QVQLVESGGGVVQPGRSLRLSCAASGFTFSSYGMHWVRQAPGKGLEWVAVIWYDGSNKNYADSVKGRFTISRDNSKNTLYLQMNSLRAEDTAMYYCARDQGVGYDGLDVWGQGTSVTVSS VL: DIQMTQSPSSLSASVGDRVTITCRASQGIGKYLAWFQQKPGKAPKSLIYAASSLQSGVPSKFSGSGYGTDFTLTISSLQPENFATYYCQQYSTYPLTFGGGTKVEIK",-5,-4,0
"193C7 (antibody, V domains shown, hybridoma mAb) VH: QVQLVESGGGVVQPGRSLRLSCAASGFTFSSYGMHWVRQAPGKGLEWVAVIWYDGSNKNYADSVKGRFTISRDNSKNTLYLQMNSLRAEDTAMYYCARDQGVGYDGLDVWGQGTSVTVSS VL: DIQMTQSPSSLSASVGDRVTITCRASQGIGKYLAWFQQKPGKAPKSLIYAASSLQSGVPSKFSGSGSGTDFTLTISSLQPEDFATYYCQQYSTYPLTFGGGTKVEIK",-8,-8,-1
"194C1 (antibody, V domains shown, hybridoma mAb) VH: QVQLVESGGGVVQPGRSLRLSCAASGFTFSSYGMHWVRQAPGKGLEWVAVIWYDGSNEHYADSVKGRFTISRDNSKNTLYLQMNSLRAEDTAVYYCARNRGVGYYGLDVWGQGTTVTVSS VL: DIQMTQSPSSLSASVGDRVTITCRASQGISNYLAWFQQKPGKAPKSLIYAASSLQSGVPSKFSGSGSGTDFTLTISSLQPEDFATYYCLHYLTYPLTFGGGTKVEIK",-12,-8,-7
"196C7 (antibody, V domains shown, hybridoma mAb) VH: QVQLVESGGGVVQPGRSLRLSCAASGFTFSSYGMHWVRQAPGKGLEWVAVIWYDGSNEHYADSVKGRFTISRDNSKNTLYLQMNSLRAEDTAVYYCARDRGVGYYGLDVWGQGTTVTVSS VL: DIQMTQSPSSLSASVGDRVTITCRANQAISNYLAWFQQKPGKAPKSLIYAASSLQSGVPSKFSGSGSGTDFTLTISSLQPEDFATYYCQHYLTYPLTFGGGTKVEIK",-12,-12,-8
"197B6 (antibody, V domains shown, hybridoma mAb) VH: QVQLVESGGGVVQPGRSLRLSCAASGFTFSSYGMHWVRQAPGKGLEWVAVIWYDGSNKNYADSVKGRFTISRDNSKNMLYLQMNSLRAEDTAMYYCARDQGVGYDGLDVWGQGTSVTVSS VL: DIQMTQSPSSLSASVGDRVTITCRASQGIGKYLAWFQQKPGKAPKSLIYGASSLQSGVPSKFSGSGSGTDFTLTISSLQPENFATYYCQQYSTYPLTFGGGTKVEIK",-8,-7,-1
"197F2 (antibody, V domains shown, hybridoma mAb) VH: QVQLVESGGGVVQPGRSLRLSCAASGFTFSSYGMHWVRQAPGKGLEWVAVIWYDGSNKNYADSVKGRFTISRDNSKNTLYLQMNSLRAEDTAVYYCARDQGVGYDGLDVWGQGTTVTVSS VL: DIQMIQSPSSLSASVGDRVTITCRTSQGIGNYLAWFQQKPGKAPKSLLYKTSSLQSGVPSKFSGSGSGTDFTLTISSLQPEDFATYYFQQYITYPLTFGGGTKVEIK",-6,-6,0
"198G3 (antibody, V domains shown, hybridoma mAb) VH: QVQLVESGGGVVQPGRSLKLSCAASGFTFSTYGMHWVRQAPGKGLEWVAVIWYDGTNKNYADSVKGRFTISRDNSKNTLCLQMNSLRAEDTAVYYCARDQGVGYDGLDVWGQGTTVTVSS VL: DIQMAQSPSSLSASVGDRVTITCRTSQGIGKYLAWFQQKPGKAPKSLLYKASSLQGGVPSKFSGSGSGTDFTLTISSLQPEDFATYYCQQYMTYPLTFGGGTKVEIK",-4,-4,-1
